This note sets out measurements from patent US20240034757A1 (OXFORD UNIVERSITY INNOVATION, published 2024).

Sequences and labels used below:
B8: CXCL14_HUMAN (ligand)
chain: SKCKCSRKGPKIRYSDVKKLEMKPKYPHCEEKMVIITTKSVSRYRGQEHCLHPKLQSTKRFIKWYNAWNEKRRVYEE

Experiment [1] deals with T1, CXCL12_HUMAN (human, UniProt P48061 22-89). The experiment can be described thus: BLI.
Experiment [2] deals with T2, CXCL13_HUMAN (human, UniProt O43927 23-109).
T2 sequence: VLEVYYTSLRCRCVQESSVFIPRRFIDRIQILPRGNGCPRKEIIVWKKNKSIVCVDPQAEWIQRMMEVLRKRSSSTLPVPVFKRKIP
Briefly: BLI. Background: BLI is a label-free optical method that tracks binding on a fibre tip over time.

Experiment [3] concerns the target B8. The experiment can be described thus: BLI.
The target in experiment [4] is T3, CXCL8_HUMAN (human, UniProt P10145 28-99).
T3 sequence: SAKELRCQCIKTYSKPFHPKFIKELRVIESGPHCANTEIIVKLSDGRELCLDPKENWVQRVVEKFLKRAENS
The experiment can be described thus: BLI [Cont.].

In experiment [5] the target is T4, CXCL7_HUMAN (human, UniProt P02775 59-128).
T4 sequence: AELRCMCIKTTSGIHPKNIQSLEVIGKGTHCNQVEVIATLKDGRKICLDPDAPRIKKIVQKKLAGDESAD
The experiment can be described thus: yeast surface display FACS re-test.

The target of experiment [6] is T5, CXCL10_HUMAN (human, UniProt P02778 22-98).
T5 sequence: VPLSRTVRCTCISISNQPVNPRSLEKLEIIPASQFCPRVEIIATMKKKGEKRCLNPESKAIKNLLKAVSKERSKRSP
Briefly: yeast surface display FACS re-test.

Experiment [7] has as its target T6, CCL5_HUMAN (human, UniProt P13501 24-91).
T6 sequence: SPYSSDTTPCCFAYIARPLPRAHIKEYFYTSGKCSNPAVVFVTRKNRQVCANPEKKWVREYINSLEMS
The experiment can be described thus: yeast surface display FACS.

In experiment [8] the target is CCL11_HUMAN (human, UniProt P51671 24-97). The experiment can be described thus: yeast surface display FACS.
The target of experiment [9] is T7, CCL18_HUMAN (human, UniProt P55774 21-89).
T7 sequence: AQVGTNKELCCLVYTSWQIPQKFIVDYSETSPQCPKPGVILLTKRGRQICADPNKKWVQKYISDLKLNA
Briefly: yeast surface display FACS.

Experiment [10] deals with T1, CXCL12_HUMAN. The experiment can be described thus: yeast surface display FACS.
Experiment [11] deals with CCL20_HUMAN (human, UniProt P78556 27-96). The experiment can be described thus: yeast surface display FACS.
In experiment [12] the target is T3, CXCL8_HUMAN. The experiment can be described thus: yeast surface display FACS.
Experiment [13] concerns the target T6, CCL5_HUMAN. The experiment can be described thus: BLI, evasin immobilised.
Experiment [14] has as its target T8, CCL8_HUMAN (human, UniProt P80075 24-99).
T8 sequence (looked up): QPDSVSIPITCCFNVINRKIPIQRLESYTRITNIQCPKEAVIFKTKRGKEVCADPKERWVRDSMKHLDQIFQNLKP
Briefly: BLI, evasin immobilised.

The target in experiment [15] is T9, CXCL1_HUMAN (human, UniProt P09341 35-107).
T9 sequence: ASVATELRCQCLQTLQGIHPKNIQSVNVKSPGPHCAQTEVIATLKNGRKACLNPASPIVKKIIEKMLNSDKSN
The experiment can be described thus: BLI, evasin immobilised.

In experiment [16] the target is T3, CXCL8_HUMAN. Briefly: BLI, evasin immobilised.
In experiment [17] the target is T5, CXCL10_HUMAN. The experiment can be described thus: BLI, evasin immobilised.
Experiment [18] concerns the target CCL2_HUMAN (human, UniProt P13500 24-99). Briefly: BLI, evasin immobilised.
Experiment [19] concerns the target T10, CCL16_HUMAN (human, UniProt O15467 24-120).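 Further: biolayer interferometry on an Octet system: chemokines at several doses tested against tick chemokine-binding proteins, association, equilibrium and dissociation curves fitted to derive Kd.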
T10 sequence: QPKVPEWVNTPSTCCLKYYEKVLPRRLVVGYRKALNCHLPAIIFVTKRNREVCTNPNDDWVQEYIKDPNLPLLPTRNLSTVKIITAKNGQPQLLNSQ
The experiment can be described thus: BLI.

Experiment [20] deals with T11, P1156_IXORI (Ixodes ricinus, UniProt V5HBW0 29-108).
T11 sequence: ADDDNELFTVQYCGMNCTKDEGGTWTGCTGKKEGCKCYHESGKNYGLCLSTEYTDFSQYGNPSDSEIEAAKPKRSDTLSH
The experiment can be described thus: BLI.

The target in experiment [21] is P1080_IXORI (Ixodes ricinus, UniProt A0A090XBL6 20-118). The experiment can be described thus: BLI.
For experiment [22], the target named is T12, P1095_IXORI (Ixodes ricinus, UniProt A0A0K8RCE3 24-112).
T12 sequence: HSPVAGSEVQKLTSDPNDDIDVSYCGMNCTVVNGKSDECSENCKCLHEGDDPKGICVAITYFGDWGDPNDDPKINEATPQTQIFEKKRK
Briefly: BLI.

Experiment [23] has as its target T13, P1096_IXORI (Ixodes ricinus, UniProt A0A0K8RKE4 24-114).
T13 sequence: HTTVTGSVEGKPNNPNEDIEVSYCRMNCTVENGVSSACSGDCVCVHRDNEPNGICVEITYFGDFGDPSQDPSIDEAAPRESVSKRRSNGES
Briefly: BLI.

Experiment [24] addresses T14, P1127_IXORI (Ixodes ricinus, UniProt A0A0K8RJ67 29-108).
T14 sequence: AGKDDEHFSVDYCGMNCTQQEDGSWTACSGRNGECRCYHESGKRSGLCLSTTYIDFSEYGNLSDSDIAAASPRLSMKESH
Briefly: BLI.

For experiment [25], the target named is T15, P1132_IXORI (Ixodes ricinus, UniProt V5GZ08 29-106).
T15 sequence: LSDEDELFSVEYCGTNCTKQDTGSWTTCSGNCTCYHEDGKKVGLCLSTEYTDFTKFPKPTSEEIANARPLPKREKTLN
The experiment can be described thus: BLI.

Experiment [26] deals with T16, P1134_IXORI (Ixodes ricinus, UniProt A0A0K8RAI0 32-135).
T16 sequence: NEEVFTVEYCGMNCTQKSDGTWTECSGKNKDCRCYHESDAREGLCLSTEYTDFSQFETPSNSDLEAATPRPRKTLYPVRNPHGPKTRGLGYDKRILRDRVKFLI
The experiment can be described thus: BLI.

Experiment [27] has as its target T17, P1166_IXORI (Ixodes ricinus, UniProt A0A0K8RE99 25-110).
T17 sequence: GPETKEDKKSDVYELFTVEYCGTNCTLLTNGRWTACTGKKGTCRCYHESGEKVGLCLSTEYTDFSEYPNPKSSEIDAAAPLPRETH
Briefly: BLI.

Experiment [28] has as its target T18, P1168_IXORI (Ixodes ricinus, UniProt A0A0K8RCU3 25-106).
T18 sequence: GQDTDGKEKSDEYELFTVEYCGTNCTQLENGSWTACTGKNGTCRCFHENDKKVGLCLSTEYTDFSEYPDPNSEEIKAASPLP
The experiment can be described thus: BLI.

The target in experiment [29] is T19, CCL17_HUMAN (human, UniProt Q92583 24-94).
T19 sequence: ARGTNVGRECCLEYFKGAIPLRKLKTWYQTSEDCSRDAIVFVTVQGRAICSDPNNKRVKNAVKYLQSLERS
The experiment can be described thus: yeast surface display FACS.

In experiment [30] the target is T6, CCL5_HUMAN. The experiment can be described thus: yeast surface display FACS. This is another data set of the same source.

Like-named read-outs stand apart in the source and are kept apart here.

CCL20_HUMAN, sequence (P78556 27-96 limits assumed): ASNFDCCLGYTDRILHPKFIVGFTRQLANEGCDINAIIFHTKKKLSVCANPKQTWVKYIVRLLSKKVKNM
T1 sequence (P48061 22-89 limits assumed): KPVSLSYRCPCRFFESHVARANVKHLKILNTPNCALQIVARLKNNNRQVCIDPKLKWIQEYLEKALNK
CCL2_HUMAN, sequence (P13500 24-99 limits assumed): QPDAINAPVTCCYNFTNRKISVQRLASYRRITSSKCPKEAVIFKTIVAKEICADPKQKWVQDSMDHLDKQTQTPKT
CCL11_HUMAN, sequence (P51671 24-97 limits assumed): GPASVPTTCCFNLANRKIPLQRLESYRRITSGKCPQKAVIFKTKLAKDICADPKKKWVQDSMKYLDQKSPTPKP
P1080_IXORI, sequence (A0A090XBL6 20-118): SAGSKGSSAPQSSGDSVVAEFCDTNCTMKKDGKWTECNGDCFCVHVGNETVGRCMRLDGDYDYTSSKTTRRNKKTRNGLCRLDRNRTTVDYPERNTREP

B1: P1126_AMBCA (other)
chain: KPQILQRTDKSTDSEWDPQTCPETCIPSKNITCSDGCVCVKLGEEEEGTCFNMTGVDWLGSPSDD
Take B1: the binding result in experiment [1], in experiment [2], in [3] and in experiment [4] was “no binding (tested: 300 nM)” throughout. Moreover, the “% cells over threshold fluorescence” value is 74% in [5] and 66% in experiment [6].

B2: P1215_AMBPA (other)
chain: KTDTKNAAGELPPKVVIPGCEDPATTKAPLPDEPPYYGITIDKDGCQRKVLGSSQRQQRKVQNGRKLDGKKRGRRPVFVDLELTVDCKRKCNGTYSQLPDGENCLVSDGYPYGRWGTIKGGCYQGNCSSGQCHRGEKKVNCYLPKNITNDVPKSLNLAE
Turning to B2, the binding result in experiment [7], in experiment [8], in [9] and in [10] was “binds” each time.

B3: P1015_AMBCA (other)
chain: EEAPGPAPGCGEPEPTPPKPRRHGIVTNVNSCNSTILVWNGKEFPALCKVRCPHKSYRVSDFEPCLKFTNRRFLQERKDETPYKCKLGFCRHGTCITSEHSRKVPCKVPADRLDPSE
B3: the binding result in experiment [11] and in [12] was “binds” throughout.

B4: P1821 (P1142:G4S:P1156:G4S:P991) (designed binder)
chain: KPQILQRTDHSTDSDWDPQMCPETCNPSKNISCSSECLCVTLGGGDETGTCFNMSGVDWLGHAQASDGHNDGGGGGSADDDNELFTVQYCGMNCTKDEGGTWTGCTGKKEGCKCYHESGKNYGLCLSTEYTDFSQYGNPSDSEIEAAKPKRSDTLSHGGGGSENGEGTTQPDYDNSTDYYNYEDFKCTCPAPHLNNTNGTVMKPIGCYYTCNVTRCTAPDTYPCYNLTEHQAKNLTTSPTTLCAVGNCDHGICVPNGTKELCFKAPNLEE
Take B4: the Kd in experiment [13] came out at 0.001 nM; in [14] it was 14.1 nM; in experiment [15], 1.86 nM; in experiment [16] it was 1.55 nM; in [17], 1.44 nM; in experiment [18], 11.8 nM.

B5: P1820 (P1142:G4S:P1156:G4S:P467) (designed binder)
chain: KPQILQRTDHSTDSDWDPQMCPETCNPSKNISCSSECLCVTLGGGDETGTCFNMSGVDWLGHAQASDGHNDGGGGGSADDDNELFTVQYCGMNCTKDEGGTWTGCTGKKEGCKCYHESGKNYGLCLSTEYTDFSQYGNPSDSEIEAAKPKRSDTLSHGGGGSAEKSLDSDSSGEDYELWTQGCPFLVAENRTGFGTTVSCQHNCNGAIEKVPEGEPCYTIGEDGLGRMKLNLPYNCSLGECSGGVCVPNGRSDVCFKRTWEENNKAMA
Turning to B5, the Kd is 0.41 nM in experiment [13]; 18.2 nM in experiment [14]; 1.12 nM in [15]; 1.11 nM in experiment [16]; 1.01 nM in experiment [17]; 2.86 nM in [18].

B6: P974_AMBCA (other)
chain: ENTQQEEQDYDYGTDTCPFPVLANKTNKAKFVGCHQKCNGGDQKLTDGTACYVVERKVWDRMTPMLWYECPLGECKNGVCEDLRKKEDCRKGNGEEK
Regarding B6, binding in [19] was put at a Kd of 11 nM.

B7: P546_AMBCA (other)
chain: ENTQQEEEDYDYGTDTCPFPVLANKTNKAKFVGCHQKCNGGDQKLTDGTACYVVERKVWDRMTPMLWYSCPLGECKNGVCEDLRKKEECRKGNGEEK
As to B7, in [19], binding was put at a Kd of 6.7 nM.

For the molecule B8, the binding result in experiment [20], in [21], in experiment [22], in [23], in experiment [24] and in experiment [25] was “no binding (tested: 300 nM)” throughout. The binding result in [26], in experiment [27] and in experiment [28] was “no binding (tested: 300 nM)” each time.

B9: P1252_AMBAM (other)
chain: RGGAASVPANASIPGCGDAQTTPAAPEDQPKHYVVYRDGNGCEVKIIGTWMTTEDYNCLPDTFRKNRAPHGKVKLPASCKKTCGNAVQNLKDGTPCRKVFGDLGRRRNLIKNGCLVGACQSGLCVSGNRTISCYIPPNSTDTRATPGSFAE
For the molecule B9, the binding result in experiment [29], in [11] and in experiment [12] was “binds” each time.

B10: P993_AMBPA (other)
chain: HRHYDPNEPCLIAGLKTPRDALPAGCRYDCMIKKNQKLRDGLLCLDVPEKVVKRMVNYLNYSCPLGTCRKGICKRKHRNVRCQKYPVFYMSPPK
For B10, the binding result in experiment [30], in experiment [29] and in experiment [11] was “binds” each time.

For orientation: Kd means the concentration at which binding is half-saturated. High values mean a looser complex, low ones a tighter complex.
